Data reported in the supplement of paper PMC9112550, “Optimization of the antimicrobial peptide Bac7 by deep mutational scanning” (BMC Biology, 2022).

Test system: Escherichia coli TOP10
Assay: shrunken log2 fold change of peptide-encoding DNA abundance (4.5 h post-induction vs induction); higher = less antimicrobial activity (less host growth inhibition)
Conditions: time post-induction: 4.5 h; library: site-saturation at positions 5, 18, 19, 20
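Further: peptides expressed intracellularly from a pBAD plasmid library in pooled LB shake-flask culture, induced with 0.3% L-arabinose, DNA abundance read by NGS, three biological replicates, DESeq2 with apeglm shrinkage.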

| Sequence | shrunken log2 fold change |
| --- | --- |
| RRIRERPPRLPRPRPRPEVMPRP | 0.378 |
| RRIRWRPPRLPRPRPRPRQMPRP | 0.0196 |
| RRIRFRPPRLPRPRPRPGRQPRP | 0.179 |
| RRIRHRPPRLPRPRPRPCWLPRP | -0.0661 |
| RRIRQRPPRLPRPRPRPFIWPRP | -0.357 |
| RRIRFRPPRLPRPRPRPFWHPRP | 0.041 |
| RRIRRRPPRLPRPRPRPECMPRP | 0.921 |
| RRIRMRPPRLPRPRPRPMLAPRP | 2.84 |
| RRIRQRPPRLPRPRPRPEELPRP | -0.0362 |
| RRIRCRPPRLPRPRPRPAWQPRP | 0.359 |
| RRIRCRPPRLPRPRPRPMDMPRP | 0.00534 |
| RRIRFRPPRLPRPRPRPSPEPRP | 0.24 |
| RRIRMRPPRLPRPRPRPPMWPRP | -0.0434 |
| RRIRARPPRLPRPRPRPVMKPRP | -0.205 |
| RRIRNRPPRLPRPRPRPRHYPRP | -0.446 |
| RRIRHRPPRLPRPRPRPECWPRP | 0.514 |
| RRIRYRPPRLPRPRPRPDFRPRP | 0.129 |
| RRIRDRPPRLPRPRPRPTLHPRP | 0.605 |
| RRIRARPPRLPRPRPRPWQPPRP | 0.0351 |
| RRIRRRPPRLPRPRPRPIYPPRP | -0.2 |
| RRIRKRPPRLPRPRPRPSVQPRP | 0.0869 |
| RRIRVRPPRLPRPRPRPGPDPRP | 0.465 |

| Sequence | shrunken log2 fold change |
| --- | --- |
| RRIRPRPPRLPRPRPRPDQRPRP | 0.015 |
| RRIRGRPPRLPRPRPRPGALPRP | 0.723 |
| RRIRPRPPRLPRPRPRPHRGPRP | -0.0385 |
| RRIRRRPPRLPRPRPRPMMVPRP | -0.00292 |
| RRIRVRPPRLPRPRPRPRAVPRP | 0.314 |
| RRIRIRPPRLPRPRPRPDSVPRP | 0.0234 |
| RRIRIRPPRLPRPRPRPWVVPRP | -0.236 |
| RRIRVRPPRLPRPRPRPSCYPRP | -0.568 |
| RRIRVRPPRLPRPRPRPDFFPRP | -0.0229 |
| RRIRSRPPRLPRPRPRPLEYPRP | -0.277 |
| RRIRPRPPRLPRPRPRPPDQPRP | 0.601 |
| RRIRDRPPRLPRPRPRPANNPRP | -0.218 |
| RRIRNRPPRLPRPRPRPCGQPRP | 0.0151 |
| RRIRIRPPRLPRPRPRPCHIPRP | -0.149 |
| RRIRQRPPRLPRPRPRPHAFPRP | -0.0738 |
| RRIRGRPPRLPRPRPRPWCAPRP | 0.407 |
| RRIRDRPPRLPRPRPRPPVAPRP | 0.304 |
| RRIRTRPPRLPRPRPRPDALPRP | 0.162 |
| RRIRKRPPRLPRPRPRPGPDPRP | 0.608 |
| RRIRLRPPRLPRPRPRPLYQPRP | -0.833 |
| RRIRARPPRLPRPRPRPMEIPRP | 0.146 |
| RRIRRRPPRLPRPRPRPWCPPRP | -0.0442 |

| Sequence | shrunken log2 fold change |
| --- | --- |
| RRIRGRPPRLPRPRPRPLQPPRP | 0.991 |
| RRIRCRPPRLPRPRPRPKPWPRP | 0.275 |
| RRIRMRPPRLPRPRPRPYACPRP | -0.0298 |
| RRIRGRPPRLPRPRPRPASRPRP | 0.705 |
| RRIRNRPPRLPRPRPRPKSDPRP | -0.168 |
| RRIRPRPPRLPRPRPRPYWEPRP | -0.0429 |
| RRIRYRPPRLPRPRPRPMCTPRP | 0.00658 |
| RRIRVRPPRLPRPRPRPRYHPRP | -0.36 |
| RRIRTRPPRLPRPRPRPINQPRP | -0.274 |
| RRIRPRPPRLPRPRPRPNCGPRP | -0.0429 |
| RRIRMRPPRLPRPRPRPLTWPRP | 0.308 |
| RRIRERPPRLPRPRPRPAAVPRP | 0.057 |
| RRIRYRPPRLPRPRPRPIKMPRP | -0.666 |
| RRIRSRPPRLPRPRPRPCFTPRP | -0.521 |
| RRIRMRPPRLPRPRPRPPPMPRP | 1.54 |
| RRIRNRPPRLPRPRPRPSCAPRP | -0.0999 |
| RRIRDRPPRLPRPRPRPKGHPRP | 0.0517 |
| RRIRFRPPRLPRPRPRPFTHPRP | -0.296 |
| RRIRLRPPRLPRPRPRPHAEPRP | -0.203 |
| RRIRQRPPRLPRPRPRPTNAPRP | -0.309 |
| RRIRARPPRLPRPRPRPIYPPRP | -0.387 |
| RRIRCRPPRLPRPRPRPVQIPRP | -0.0351 |

| Sequence | shrunken log2 fold change |
| --- | --- |
| RRIRARPPRLPRPRPRPSHDPRP | 0.225 |
| RRIRERPPRLPRPRPRPLIFPRP | -0.406 |
| RRIRSRPPRLPRPRPRPWFTPRP | -0.253 |
| RRIRYRPPRLPRPRPRPKFLPRP | -0.139 |
| RRIRDRPPRLPRPRPRPGFAPRP | 0.992 |
| RRIRRRPPRLPRPRPRPMAKPRP | 0.315 |
| RRIRHRPPRLPRPRPRPKRSPRP | 0.0325 |
| RRIRSRPPRLPRPRPRPPDSPRP | 0.322 |
| RRIRSRPPRLPRPRPRPDPEPRP | 0.183 |
| RRIRDRPPRLPRPRPRPRWFPRP | -0.0867 |
| RRIRVRPPRLPRPRPRPANYPRP | -0.241 |
| RRIRARPPRLPRPRPRPLWNPRP | 0.0673 |
| RRIRARPPRLPRPRPRPCVQPRP | 0.217 |
| RRIRPRPPRLPRPRPRPVIPPRP | -0.213 |
| RRIRCRPPRLPRPRPRPRGAPRP | 0.766 |
| RRIRKRPPRLPRPRPRPVGNPRP | 0.0255 |
| RRIRERPPRLPRPRPRPTKWPRP | 0.155 |
| RRIRCRPPRLPRPRPRPKQEPRP | 0.0247 |
| RRIRVRPPRLPRPRPRPALIPRP | 0.342 |
| RRIRSRPPRLPRPRPRPSMIPRP | -0.625 |
| RRIRGRPPRLPRPRPRPLYIPRP | -0.321 |
| RRIRKRPPRLPRPRPRPVNNPRP | -0.241 |

| Sequence | shrunken log2 fold change |
| --- | --- |
| RRIRTRPPRLPRPRPRPIHVPRP | 0.00961 |
| RRIRVRPPRLPRPRPRPPTVPRP | 0.167 |
| RRIRRRPPRLPRPRPRPSTAPRP | 0.297 |
| RRIRHRPPRLPRPRPRPRHAPRP | 0.164 |
| RRIRMRPPRLPRPRPRPRHDPRP | 0.659 |
| RRIRRRPPRLPRPRPRPCSPPRP | -0.125 |
| RRIRNRPPRLPRPRPRPGCNPRP | -0.642 |
| RRIRHRPPRLPRPRPRPDFTPRP | -0.0849 |
| RRIRLRPPRLPRPRPRPDPRPRP | 0.603 |
| RRIRDRPPRLPRPRPRPASWPRP | 0.805 |
| RRIRIRPPRLPRPRPRPVDSPRP | 0.0804 |
| RRIRTRPPRLPRPRPRPSQEPRP | -0.184 |
| RRIRTRPPRLPRPRPRPKFWPRP | 0.318 |
| RRIRCRPPRLPRPRPRPRSEPRP | 0.325 |
| RRIRARPPRLPRPRPRPCTMPRP | -0.207 |
| RRIRYRPPRLPRPRPRPYVAPRP | -0.206 |
| RRIRVRPPRLPRPRPRPQAFPRP | 0.0753 |
| RRIRSRPPRLPRPRPRPFSYPRP | -0.0241 |
| RRIRARPPRLPRPRPRPMQFPRP | 0.091 |
| RRIRKRPPRLPRPRPRPWPLPRP | -0.0227 |
| RRIRGRPPRLPRPRPRPVCTPRP | 0.73 |
